Values joined by “and” are separate entries in the source; they are usually repeats but may differ in a detail not shown here. Equal values may be shown once. Values belong to the binder of their own block, whether it stands above or below them. Numbered stars: 1 amine (or outer) side, 2 acyl side, 3 side chain; on linkers, the order of the positions; unused ones are H or OH. Side chains are listed from the residue outwards. Ends that are not written are not given here. * marks the point of attachment. γGlu = O=C(O)[C@H](CCC(=O)[*:2])N[*:1]; Palmitoyl = CCCCCCCCCCCCCCCC(=O)*; Ahx = NCCCCCC(=O)O
How the values were obtained:
[1] = target: human GLP-1 receptor (human, UniProt P43220 24-463); test: cell-based or functional assay
Sequence of human GLP-1 receptor (P43220 24-463): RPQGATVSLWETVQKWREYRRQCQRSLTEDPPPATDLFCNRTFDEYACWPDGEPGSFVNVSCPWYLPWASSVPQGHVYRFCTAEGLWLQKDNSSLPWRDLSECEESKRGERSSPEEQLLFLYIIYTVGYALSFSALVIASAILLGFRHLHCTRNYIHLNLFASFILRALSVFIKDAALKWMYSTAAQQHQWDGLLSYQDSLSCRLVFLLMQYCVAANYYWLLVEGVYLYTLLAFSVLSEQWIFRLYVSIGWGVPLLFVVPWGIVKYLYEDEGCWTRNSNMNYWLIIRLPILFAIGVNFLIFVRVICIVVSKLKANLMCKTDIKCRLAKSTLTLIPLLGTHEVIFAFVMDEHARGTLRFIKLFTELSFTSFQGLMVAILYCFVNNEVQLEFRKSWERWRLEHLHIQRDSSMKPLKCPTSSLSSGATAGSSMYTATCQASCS

[2] = target: human glucagon receptor (human, UniProt P47871 26-477); test: cell-based or functional assay
Sequence of human glucagon receptor (P47871 26-477): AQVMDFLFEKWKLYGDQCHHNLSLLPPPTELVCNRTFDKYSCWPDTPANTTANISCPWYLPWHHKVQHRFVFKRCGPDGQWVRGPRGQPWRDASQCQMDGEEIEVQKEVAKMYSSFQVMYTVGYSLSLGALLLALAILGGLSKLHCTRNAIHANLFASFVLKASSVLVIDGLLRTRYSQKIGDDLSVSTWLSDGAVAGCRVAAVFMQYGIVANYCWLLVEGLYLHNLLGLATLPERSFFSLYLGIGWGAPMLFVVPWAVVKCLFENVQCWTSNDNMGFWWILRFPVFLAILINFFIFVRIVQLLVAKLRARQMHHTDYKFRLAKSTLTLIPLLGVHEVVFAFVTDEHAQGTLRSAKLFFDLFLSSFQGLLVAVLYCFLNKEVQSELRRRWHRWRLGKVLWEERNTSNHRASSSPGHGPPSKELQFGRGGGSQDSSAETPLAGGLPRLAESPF

Binder: HSQGTFTSDYSKYLDSRRAQDFVQWLVAGGGGGGK-NH2 [g325]
- cAMP EC50 (assay 1) [1]: 0.0261 nM
- cAMP EC50 (assay 1) [2]: 10.3 pM

B1: g701 (peptide)
peptide: HGQGTFTSDYSK([γGlu-Palmitoyl])YLDSERAQDFVQWLERGG-NH2
modifications: N-terminus assumed
SMILES: CCCCCCCCCCCCCCCC(=O)N[C@@H](CCC(=O)NCCCC[C@H](NC(=O)[C@H](CO)NC(=O)[C@H](Cc1ccc(O)cc1)NC(=O)[C@H](CC(=O)O)NC(=O)[C@H](CO)NC(=O)[C@@H](NC(=O)[C@H](Cc1ccccc1)NC(=O)[C@@H](NC(=O)CNC(=O)[C@H](CCC(N)=O)NC(=O)CNC(=O)[C@@H](N)Cc1c[nH]cn1)[C@@H](C)O)[C@@H](C)O)C(=O)N[C@@H](Cc1ccc(O)cc1)C(=O)N[C@@H](CC(C)C)C(=O)N[C@@H](CC(=O)O)C(=O)N[C@@H](CO)C(=O)N[C@@H](CCC(=O)O)C(=O)N[C@@H](CCCNC(=N)N)C(=O)N[C@@H](C)C(=O)N[C@@H](CCC(N)=O)C(=O)N[C@@H](CC(=O)O)C(=O)N[C@@H](Cc1ccccc1)C(=O)N[C@H](C(=O)N[C@@H](CCC(N)=O)C(=O)N[C@@H](Cc1c[nH]c2ccccc12)C(=O)N[C@@H](CC(C)C)C(=O)N[C@@H](CCC(=O)O)C(=O)N[C@@H](CCCNC(=N)N)C(=O)NCC(=O)NCC(N)=O)C(C)C)C(=O)O
- cAMP EC50 (assay 1) [1]: 7.4 nM
- cAMP EC50 (assay 1) [2]: 3830 pM

B3: g318 (peptide)
peptide: HSQGTFTSDYSKYLDSRRAQDFVQWLVAGGSSGGSSK(Palmitoyl)-NH2
modifications: N-terminus assumed
SMILES: CCCCCCCCCCCCCCCC(=O)NCCCC[C@H](NC(=O)[C@H](CO)NC(=O)[C@H](CO)NC(=O)CNC(=O)CNC(=O)[C@H](CO)NC(=O)[C@H](CO)NC(=O)CNC(=O)CNC(=O)[C@H](C)NC(=O)[C@@H](NC(=O)[C@H](CC(C)C)NC(=O)[C@H](Cc1c[nH]c2ccccc12)NC(=O)[C@H](CCC(N)=O)NC(=O)[C@@H](NC(=O)[C@H](Cc1ccccc1)NC(=O)[C@H](CC(=O)O)NC(=O)[C@H](CCC(N)=O)NC(=O)[C@H](C)NC(=O)[C@H](CCCNC(=N)N)NC(=O)[C@H](CCCNC(=N)N)NC(=O)[C@H](CO)NC(=O)[C@H](CC(=O)O)NC(=O)[C@H](CC(C)C)NC(=O)[C@H](Cc1ccc(O)cc1)NC(=O)[C@H](CCCCN)NC(=O)[C@H](CO)NC(=O)[C@H](Cc1ccc(O)cc1)NC(=O)[C@H](CC(=O)O)NC(=O)[C@H](CO)NC(=O)[C@@H](NC(=O)[C@H](Cc1ccccc1)NC(=O)[C@@H](NC(=O)CNC(=O)[C@H](CCC(N)=O)NC(=O)[C@H](CO)NC(=O)[C@@H](N)Cc1c[nH]cn1)[C@@H](C)O)[C@@H](C)O)C(C)C)C(C)C)C(N)=O
- cAMP EC50 (assay 1) [1]: 1.14 nM
- cAMP EC50 (assay 1) [2]: 9040 pM

Binder: HSQGTFTSDYSKYLDSRRAQDFVQWLVAGGSSGGSSK-NH2 [g317]
- cAMP EC50 (assay 1) [1]: 2.63 nM

B6: g720 (peptide)
peptide: HGQGTFTSDYSRYLDSK([γGlu-Palmitoyl])RARDFVEWLVAGG-NH2
modifications: N-terminus assumed
SMILES: CCCCCCCCCCCCCCCC(=O)N[C@@H](CCC(=O)NCCCC[C@H](NC(=O)[C@H](CO)NC(=O)[C@H](CC(=O)O)NC(=O)[C@H](CC(C)C)NC(=O)[C@H](Cc1ccc(O)cc1)NC(=O)[C@H](CCCNC(=N)N)NC(=O)[C@H](CO)NC(=O)[C@H](Cc1ccc(O)cc1)NC(=O)[C@H](CC(=O)O)NC(=O)[C@H](CO)NC(=O)[C@@H](NC(=O)[C@H](Cc1ccccc1)NC(=O)[C@@H](NC(=O)CNC(=O)[C@H](CCC(N)=O)NC(=O)CNC(=O)[C@@H](N)Cc1c[nH]cn1)[C@@H](C)O)[C@@H](C)O)C(=O)N[C@@H](CCCNC(=N)N)C(=O)N[C@@H](C)C(=O)N[C@@H](CCCNC(=N)N)C(=O)N[C@@H](CC(=O)O)C(=O)N[C@@H](Cc1ccccc1)C(=O)N[C@H](C(=O)N[C@@H](CCC(=O)O)C(=O)N[C@@H](Cc1c[nH]c2ccccc12)C(=O)N[C@@H](CC(C)C)C(=O)N[C@H](C(=O)N[C@@H](C)C(=O)NCC(=O)NCC(N)=O)C(C)C)C(C)C)C(=O)O
- cAMP EC50 (assay 1) [1]: 0.0534 nM
- cAMP EC50 (assay 1) [2]: 352 pM

Binder: HSQGTFTSDYSKYLDSRRAQDFVQWLVAGGSGSGSG-NH2 [g402]
- cAMP EC50 (assay 1) [1]: 0.0857 nM
- cAMP EC50 (assay 1) [2]: 59.6 pM

Now from value to binder:

- cAMP EC50 (assay 1) [1]: 0.0814 nM
- cAMP EC50 (assay 1) [2]: 734000 pM
B2: g737 (peptide)
peptide: HGEGTFTSDYSKYLDSK([γGlu-Palmitoyl])RAADFVAWLVAGG-NH2
modifications: N-terminus assumed
SMILES: CCCCCCCCCCCCCCCC(=O)N[C@@H](CCC(=O)NCCCC[C@H](NC(=O)[C@H](CO)NC(=O)[C@H](CC(=O)O)NC(=O)[C@H](CC(C)C)NC(=O)[C@H](Cc1ccc(O)cc1)NC(=O)[C@H](CCCCN)NC(=O)[C@H](CO)NC(=O)[C@H](Cc1ccc(O)cc1)NC(=O)[C@H](CC(=O)O)NC(=O)[C@H](CO)NC(=O)[C@@H](NC(=O)[C@H](Cc1ccccc1)NC(=O)[C@@H](NC(=O)CNC(=O)[C@H](CCC(=O)O)NC(=O)CNC(=O)[C@@H](N)Cc1c[nH]cn1)[C@@H](C)O)[C@@H](C)O)C(=O)N[C@@H](CCCNC(=N)N)C(=O)N[C@@H](C)C(=O)N[C@@H](C)C(=O)N[C@@H](CC(=O)O)C(=O)N[C@@H](Cc1ccccc1)C(=O)N[C@H](C(=O)N[C@@H](C)C(=O)N[C@@H](Cc1c[nH]c2ccccc12)C(=O)N[C@@H](CC(C)C)C(=O)N[C@H](C(=O)N[C@@H](C)C(=O)NCC(=O)NCC(N)=O)C(C)C)C(C)C)C(=O)O

- cAMP EC50 (assay 1) [1]: 0.0854 nM
- cAMP EC50 (assay 1) [2]: 919 pM and 920 pM
B4: g736 (peptide)
peptide: HGQGTFTSDYSKYLDSK([γGlu-Palmitoyl])RAADFVAWLVAGG-NH2
modifications: N-terminus assumed
SMILES: CCCCCCCCCCCCCCCC(=O)N[C@@H](CCC(=O)NCCCC[C@H](NC(=O)[C@H](CO)NC(=O)[C@H](CC(=O)O)NC(=O)[C@H](CC(C)C)NC(=O)[C@H](Cc1ccc(O)cc1)NC(=O)[C@H](CCCCN)NC(=O)[C@H](CO)NC(=O)[C@H](Cc1ccc(O)cc1)NC(=O)[C@H](CC(=O)O)NC(=O)[C@H](CO)NC(=O)[C@@H](NC(=O)[C@H](Cc1ccccc1)NC(=O)[C@@H](NC(=O)CNC(=O)[C@H](CCC(N)=O)NC(=O)CNC(=O)[C@@H](N)Cc1c[nH]cn1)[C@@H](C)O)[C@@H](C)O)C(=O)N[C@@H](CCCNC(=N)N)C(=O)N[C@@H](C)C(=O)N[C@@H](C)C(=O)N[C@@H](CC(=O)O)C(=O)N[C@@H](Cc1ccccc1)C(=O)N[C@H](C(=O)N[C@@H](C)C(=O)N[C@@H](Cc1c[nH]c2ccccc12)C(=O)N[C@@H](CC(C)C)C(=O)N[C@H](C(=O)N[C@@H](C)C(=O)NCC(=O)NCC(N)=O)C(C)C)C(C)C)C(=O)O

- cAMP EC50 (assay 1) [1]: 11.5 nM
- cAMP EC50 (assay 1) [2]: 35.4 pM
B5: g746 (peptide)
peptide: HSQGTFTSDYSKYLDSRRAQDFVK([γGlu-Palmitoyl])WLEAGG-NH2
modifications: N-terminus assumed
SMILES: CCCCCCCCCCCCCCCC(=O)N[C@@H](CCC(=O)NCCCC[C@H](NC(=O)[C@@H](NC(=O)[C@H](Cc1ccccc1)NC(=O)[C@H](CC(=O)O)NC(=O)[C@H](CCC(N)=O)NC(=O)[C@H](C)NC(=O)[C@H](CCCNC(=N)N)NC(=O)[C@H](CCCNC(=N)N)NC(=O)[C@H](CO)NC(=O)[C@H](CC(=O)O)NC(=O)[C@H](CC(C)C)NC(=O)[C@H](Cc1ccc(O)cc1)NC(=O)[C@H](CCCCN)NC(=O)[C@H](CO)NC(=O)[C@H](Cc1ccc(O)cc1)NC(=O)[C@H](CC(=O)O)NC(=O)[C@H](CO)NC(=O)[C@@H](NC(=O)[C@H](Cc1ccccc1)NC(=O)[C@@H](NC(=O)CNC(=O)[C@H](CCC(N)=O)NC(=O)[C@H](CO)NC(=O)[C@@H](N)Cc1c[nH]cn1)[C@@H](C)O)[C@@H](C)O)C(C)C)C(=O)N[C@@H](Cc1c[nH]c2ccccc12)C(=O)N[C@@H](CC(C)C)C(=O)N[C@@H](CCC(=O)O)C(=O)N[C@@H](C)C(=O)NCC(=O)NCC(N)=O)C(=O)O

- cAMP EC50 (assay 1) [1]: 2.45 nM
- cAMP EC50 (assay 1) [2]: 39.2 pM
B7: g744 (peptide)
peptide: HSQGTFTSDYSKYLDSRRAK([γGlu-Palmitoyl])DFVQWLEAGG-NH2
modifications: N-terminus assumed
SMILES: CCCCCCCCCCCCCCCC(=O)N[C@@H](CCC(=O)NCCCC[C@H](NC(=O)[C@H](C)NC(=O)[C@H](CCCNC(=N)N)NC(=O)[C@H](CCCNC(=N)N)NC(=O)[C@H](CO)NC(=O)[C@H](CC(=O)O)NC(=O)[C@H](CC(C)C)NC(=O)[C@H](Cc1ccc(O)cc1)NC(=O)[C@H](CCCCN)NC(=O)[C@H](CO)NC(=O)[C@H](Cc1ccc(O)cc1)NC(=O)[C@H](CC(=O)O)NC(=O)[C@H](CO)NC(=O)[C@@H](NC(=O)[C@H](Cc1ccccc1)NC(=O)[C@@H](NC(=O)CNC(=O)[C@H](CCC(N)=O)NC(=O)[C@H](CO)NC(=O)[C@@H](N)Cc1c[nH]cn1)[C@@H](C)O)[C@@H](C)O)C(=O)N[C@@H](CC(=O)O)C(=O)N[C@@H](Cc1ccccc1)C(=O)N[C@H](C(=O)N[C@@H](CCC(N)=O)C(=O)N[C@@H](Cc1c[nH]c2ccccc12)C(=O)N[C@@H](CC(C)C)C(=O)N[C@@H](CCC(=O)O)C(=O)N[C@@H](C)C(=O)NCC(=O)NCC(N)=O)C(C)C)C(=O)O

- cAMP EC50 (assay 1) [1]: 6.65 nM
- cAMP EC50 (assay 1) [2]: 43.6 pM
Binder: HSQGTFTSDYSKYLDSERAK([Ahx-Palmitoyl])DFVAWLERGG-NH2 (not fully specified) [g787]
